Assay results taken from US20240254209A1 (published 2024).

T1: peanut allergen Ara h 6 (peanut (Arachis hypogaea), UniProt Q647G9 22-145)
T1 construct: also called recombinant Ara h 6
T1 sequence (looked up): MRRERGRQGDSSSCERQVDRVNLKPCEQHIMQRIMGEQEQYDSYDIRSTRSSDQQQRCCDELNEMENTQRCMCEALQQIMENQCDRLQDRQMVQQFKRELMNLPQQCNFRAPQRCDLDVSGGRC

T2: peanut allergen Ara h 1 (peanut (Arachis hypogaea), UniProt P43238 26-626)
T2 construct: also called F422
T2 sequence (looked up): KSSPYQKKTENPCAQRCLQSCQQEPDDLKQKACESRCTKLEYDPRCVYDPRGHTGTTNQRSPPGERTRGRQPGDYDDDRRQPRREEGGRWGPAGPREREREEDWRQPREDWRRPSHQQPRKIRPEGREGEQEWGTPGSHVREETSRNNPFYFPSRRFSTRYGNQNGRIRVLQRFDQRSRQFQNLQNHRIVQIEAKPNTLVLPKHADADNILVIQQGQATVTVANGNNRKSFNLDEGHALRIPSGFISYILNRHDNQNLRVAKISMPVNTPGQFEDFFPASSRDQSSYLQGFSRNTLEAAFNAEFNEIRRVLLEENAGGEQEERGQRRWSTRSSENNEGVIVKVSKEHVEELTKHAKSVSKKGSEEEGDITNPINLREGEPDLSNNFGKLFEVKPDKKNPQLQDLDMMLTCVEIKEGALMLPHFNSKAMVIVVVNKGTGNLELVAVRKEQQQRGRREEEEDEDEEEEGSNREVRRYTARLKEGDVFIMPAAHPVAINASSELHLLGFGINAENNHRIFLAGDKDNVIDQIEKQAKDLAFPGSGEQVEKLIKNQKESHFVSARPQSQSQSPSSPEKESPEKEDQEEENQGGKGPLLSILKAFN


Experiments:
peanut allergen Ara h 6 [1] = molecular target: T1, peanut allergen Ara h 6; test: Phadia ImmunoCAP and/or ELISA and Western blot
peanut allergen Ara h 8 = molecular target: T3, peanut allergen Ara h 8 (peanut (Arachis hypogaea)); test: ImmunoCAP, hybridoma supernatant
T3 construct: ImmunoCAP component F352; also called F352
Experimental: (§1) Verification and validation of IgE mAbs peanut allergen specificity. Following the unbiased generation of IgE secreting human hybridomas from peanut allergic subject PBMCs, peanut protein binding and peanut allergen protein specificity was determined. Hybridoma culture supernatant was initially used for this validation. […] Using the available ImmunoCAP components (purified allergen proteins: Ara h 1, F422; Ara h 2, F423; Ara h 3, F424; Ara h 8 F352; Ara h 9 F427), the exact allergen specificity was determined for those which bound Ara h 1, 2, and 3.
(§2) Hybridoma cell culture supernatant was used for initial identification of allergen specificity using ImmunoCAP analysis. Peanut reactivity was first determined using peanut ImmunoCAP. Component analysis identified IgE antibodies specific for Ara h 1, 2, and 3. All antibodies not identified in this table were determined to bind Ara h 6.

peanut allergen Ara h 3 = molecular target: T4, peanut allergen Ara h 3 (peanut (Arachis hypogaea)); test: ImmunoCAP, hybridoma supernatant
T4 construct: also called F424
Experimental: as §1, §2

peanut allergen Ara h 9 = molecular target: T5, peanut allergen Ara h 9 (peanut (Arachis hypogaea)); test: ImmunoCAP, hybridoma supernatant
T5 construct: ImmunoCAP component F427; also called F427
Experimental: as §1, §2

peanut allergen Ara h 1 = molecular target: T2, peanut allergen Ara h 1; test: allergen specificity as listed in Table D
peanut allergen Ara h 6 [2] = molecular target: T1, peanut allergen Ara h 6; test: told in the text

Row | Binder | binding result (peanut allergen Ara h 6 [1]) | ImmunoCAP kUA/L (peanut allergen Ara h 8) [kUA/L] | ImmunoCAP kUA/L (peanut allergen Ara h 3) [kUA/L] | ImmunoCAP kUA/L (peanut allergen Ara h 9) [kUA/L] | also measured
1 | human IgE mAb 15C2 (antibody, V domains shown, human IgE from hybridoma) VH: QVQLVQSESELKKPGASVKISCKASGYDLTKYAMNWVRQAPGQGLEWMGWINTNTAKPTYAQGFTGRFVFSLDTSVRTIYLEISNLKAEDTAIYYCSRDGSGASWGQGTLVTVSS VL: DIQMTQSPSTLSASVGDRVTITCRASQNIGRWLAWHQQKPGKAPKVLITKASNLESGVPSRFTGSGSGTDFTLTITSLQPDDFATYYCQQYTTYSGTFGQGTRVEIK | binds |  |  |  | 
2 | human IgE mAb 26A5 (antibody, V domains shown, human IgE from hybridoma) VH: QVQLVQSGSELRKPGASVKVSCKASGYTFTKYGMNWVRQAPGQGLEWMGWINTNTAKPTYAQDFTGRFVFSLDTSVNTAYLEISGLKAEDTAVYYCATDGSEGSWGQGTLVTVSS VL: DIQMTQSPSTLSASVGDRVTITCRASQSIGTWLAWHQQKPGTAPKVLIYKASNLKSGVPSRFSGSGSGTDFTLTISSLQPDDVATYYCQQYNTYSGTFGQGTRVEIK |  | 0.15 | 0.25 | 0.14 | 
3 | human IgE mAb 3C3 (antibody, V domains shown, human IgE from hybridoma) VH: QLQLQESGPGLVKPSETLSLTCSISGASINSDDYYWGWIRQAPGEALEWIASIDASGTTFYNPSLRSRVTISVDTSTNQISLRLNSVTAADTAIYYCARRKTYYDFLTDYYNWYFDVWGRGTLVTVSS VL: QSALTQPRSVSGSPGQSVTFSCTGINSDIRDYDYVSWYQQHPGEAPKLIIYDVTKRASGVPSRFSGSKSGNTASLTISGLQAEDEADYYCCSYSVTYSFEVFGTGTQVSVL |  | 0.51 | 3460 | 0.46 | 
4 | human IgE mAb 40C7 (antibody, V domains shown, human IgE from hybridoma) VH: EVQLVESGGDLVQPGGSLRLSCAASRFSFGSYAMSWVRQAPGKGLEWVSAISSSGGRAYYADSVKGRFTISRDNSRNTLYLQLNSLRGEDTAFYYCTKEGDTGSLWLFDSWGQGTLVTVSS VL: not shown |  |  |  |  | binding result (peanut allergen Ara h 1): binds
5 | human IgE mAb 4G4 (antibody, V domains shown, human IgE from hybridoma) VH: EVQLVQSGGGLVQPGGSLRLSCAASRFIFGSYAMSWVRQAPGKGLEWVSAISSSGGRTYYADSVKGRFTISRDNSRNTLYLQLSSLRAEDTAFYYCTKEGDTGSLWLFDSWGQGTLVTVSS VL: not shown |  | 0.34 | 0.48 | 0.19 | 
6 | human IgE mAb 3B7 (antibody, V domains shown, human IgE from hybridoma) VH: QVQLVQSGSELKKPGASMKVSCKASGYTFTNYAMNWVRQAPGQGLEWMGWINTNTGKPTYAQGFTGRFVFSLDTSVSMAYLQISSLEAGDTAVYFCARGESLAALGSFAYWGQGTLVTVSS VL: DIQMTQSPSSLSASVGDRVTITCRASQSINSYLAWYQQKPGKAPNLLIYAASNLQSGVPSRFSGSGSGTDFTLTISSLQPEDFATYYCQQSSSTFWTFGQGTKVEIK |  | 0.42 | 1.15 | 0.25 | 
7 | human IgE mAb 11F10 (antibody, V domains shown, human IgE from hybridoma) VH: EVQLVESGGGLVQPGRSLRLSCAASGFTFDDYTMHWVRQAPGKGLEWVSSIRWNSGNLDYADSVKGRFTISRDNARHSLYLQMNSLRAEDTALYYCVKDNGLRTLDFWGQGTLVTVSS VL: DIVMTQSPLSLPVTPGEPASISCRSSQSLLHRNGYNYLDWYLQKPGQSPQLLISLASNRASGVPDRFSGSGSGTDFTLKISRVEAEDVGVYYCMQALQTWTFGQGTKVELK |  |  |  |  | binding result (peanut allergen Ara h 6 [2]): binds
8 | human IgE mAb 1A8 (antibody, V domains shown, human IgE from hybridoma) VH: QLQLQESGPGLVKPSETLSLTCSVSDDSISTPSYFWTWIRQPPGKGLEWIASIYYTGTTYYNPSLKSRVTLSVDTPKRQFFLRLSSVTAADTAVYYCARYLDYVWLRAFDVWGQGAMVTVSS VL: EIVLTQSPATLSLSPGERATLSCRASPSVGRFLAWYQQKPGQAPRLLIYDASQRATDIPARFSASGSGTDFTLTIDSLEPEDFAIYYCQHRSNWPVTFGGGTRVEIK | binds |  |  |  | 
9 | human IgE mAb 3B10 (antibody, V domains shown, human IgE from hybridoma) VH: EVQLVESGGALVKPGGSLRLSCEGSGFMFSSAWLHWVRQAPGMGLELVGRMKSETDGGTLDYTAPVRGRFTISRDDSKNMFFLQMNSLKAEDTAVYYCVTGNFDYRSSPLGFWGQGALVTVSS VL: DIQMTQSPSTLSASAGDRVTITCRASENIYKWLAWYQQKPGKAPKLLIYKVSTLESGVPSRFSGSGFGTEFTLTISSLQPGDFATYYCQHYNSFPFTFGQGTKLEVK |  |  |  |  | binding result (peanut allergen Ara h 1): binds
10 | human IgE mAb 20M10 (antibody, V domains shown, human IgE from hybridoma) VH: EVQLVESGGGLVKPGGSLRLSCTVSGFTFNMHSMNWVRQAPGKGLEWVSFISSTSTYIYYPDSVKGRFTVSRDNSKNSLYLQMTSLRAEDTAVYYCVRRGRGGAARALDNWGQGTLVTVSS VL: SYVLPQTPSLSVAPGQTATISCGGNNTGSKSVHWYQQKPGQAPLLVVYDNSDRPSGIPERFSGSNSGNTATLTLSRVEAEDEADYYCQVWDSTIDHVIFGGGTKLTVL | binds |  |  |  | 
11 | human IgE mAb 20G11 (antibody, V domains shown, human IgE from hybridoma) VH: QVQLVESGGGVVQPGGSLRLSCATSGFTFSSYGMHWVRQAPGKGLEWVAFIRYNGSNKYYADSVKGRFTISRDTSKNTLYLQMNSLRAEDSAVYYCAKDGDYDSWSGLTEHFQHWGQGTLVTVSS VL: not shown |  |  |  |  | binding result (peanut allergen Ara h 6 [2]): binds
12 | human IgE mAb 7B6 (antibody, V domains shown, human IgE from hybridoma) VH: QVQLQQWGAGLLKPSETLSLTCAVYGGSFNGYYWSWIRQPPGKGLEWIGEIDHSGSTNYNSSLKSRVTISVDTSKNQFSLKLSSVTAADTAVYYCARRRIGSLLKYFQDWGQGTLVTVSS VL: SYELTQPPSVSVSPGQTASITCSGDKLGDSYVCWYQLKPGQSPVLVIYQDTKRPSGIPERFSGSNSGNTATLTISETQAMDEADYYCQAWDTTTDWVFGGGTKLTVL |  | 0.29 | 0.32 | 0.21 | 
13 | human IgE mAb 15A7 (antibody, V domains shown, human IgE from hybridoma) VH: QVQLVQSGPEVRKPGASVKVSCKTSGYMFTDYEMNWVRQAPGQGLEWMGLINPHSGDTGYAQKFQGRVSMTSDTSTRTFYLELTGLTSEDTAVYYCARSQGTFEVYYFVSWGQGSLVTVSS VL: SYVLTQPPSVSVAPGKTASITCGAKNIATKRVHWYRQKPGQAPVVVVSDEEDRSSVIPERFSGSKSGDTATLEISRVEAGDEADYYCQVWDSLADQVVFGGGTKVTVL |  |  | 0.14 |  | 
14 | human IgE mAb 9A11 (antibody, V domains shown, human IgE from hybridoma) VH: EVQLVESGGGLVRPGGSLRLSCVASGFTFNTYWMHWVRQAPGKGLLWVSSLNKDGSSPTYADSVKGRFTISRDNTNNTLFLQLDSLRAEDTAVYYCVRDRRAVTTARYFDLWGRGTLVTVSS VL: DIVMTQSPESLAVSLGERATINCKSSSNIDNYLGWYQQRPGQPPKLLIYWASKRESGVPDRFSGSGSGTDFTLTIGRLQAEDVAVYYCQQYYTSPPVTFGGGTKVEIK | binds |  |  |  | 
15 | human IgE mAb 21C10 (antibody, V domains shown, human IgE from hybridoma) VH: EVQLVESGGGLVKPGGSLRLSCAASGFILSRSSMSWVRQAPGKGLEWVSYISSTSSHIYYADSLKGRFTISRDNTENSVYLQMSSLRAEDTGVYYCARKTNGAWFLDLWGRGTLVTVSS VL: QSVLTQPPSVSGAPGQRVTISCTGSSSNIGAGSDVHWYQQFPGSAPHVLIYGNNQRPSGVPDRFSASKSGTSASLAITGLQADDEADYYCQSYDYDLSGSWVFGGGTKLTVL | binds | 0.53 | 0.83 | 0.32 | 
